Test [1] deals with proteins of hBMECs (protein extract coated in microtiter wells, ELISA with recombinant ligands) (human (endogenous in hBMECs)). In words: ELISA; protein extract of hBMECs coated in microtiter wells, blocked; recombinant ligand added; detected with HisProbe-HRP conjugate and TMB substrate, absorbance at 450 nm; semi-quantitative. In general terms: An ELISA detects its analyte on a solid surface through an enzyme-linked reagent.

In test [2] the target is proteins of hBMECs (protein extract coated in microtiter wells, ELISA with synthetic analogues) (human (endogenous in hBMECs)). In words: ELISA; protein extract of hBMECs coated in microtiter wells, blocked; biotinylated synthetic peptide added; detected with streptavidin-HRP conjugate; semi-quantitative.

Where no end group is shown, it is not given here. The star is where a group is joined. Biotin = O=C1N[C@H]2[C@H](CS[C@H]2CCCCC(=O)*)N1

For the molecule “recombinant NadA (neisserial adhesin A) of Neisseria meningitidis, globular domain with the first coiled-coil structure (domain or fragment)”, the absorbance at 450 nm (absorbance at 450 nm) in test [1] was 1.14.

Regarding “recombinant domain III of protein E of West Nile virus (domain or fragment)”, the absorbance at 450 nm (absorbance at 450 nm) in test [1] is 2.2.

B1: DIII-1 synthetic analogue (…-biotin) (peptide)
peptide: GTTYGVCSK(Biotin)
For the molecule B1, in test [2], the absorbance was determined as 2.06 absorbance.

Source of the values: article PMC6981161.
